The assay concerns the target T1, Drosophila Su(H) (aa 98–523) (Drosophila, UniProt P28159 98-523).
T1 construct: Suppressor of Hairless, Su(H), Drosophila, residues 98-523; also called Suppressor of Hairless; CSL transcription factor
As to the kind of experiment: native gel or EMSA; purified proteins mixed with fluorescently labelled 2xCSL17 and 1xSPS15 DNA probes, room temperature 20 minutes; Su(H) 2.5 to 160 nM, 2 μM Hairless or NICD/Mam; the protein complexes are seen bound to the DNA probe; band intensities fitted to a 2-site equilibrium model. The conditions noted are these: both partners purified. Background: A gel shift assay detects complexes by their altered migration in electrophoresis.

T1 sequence (P28159 98-523): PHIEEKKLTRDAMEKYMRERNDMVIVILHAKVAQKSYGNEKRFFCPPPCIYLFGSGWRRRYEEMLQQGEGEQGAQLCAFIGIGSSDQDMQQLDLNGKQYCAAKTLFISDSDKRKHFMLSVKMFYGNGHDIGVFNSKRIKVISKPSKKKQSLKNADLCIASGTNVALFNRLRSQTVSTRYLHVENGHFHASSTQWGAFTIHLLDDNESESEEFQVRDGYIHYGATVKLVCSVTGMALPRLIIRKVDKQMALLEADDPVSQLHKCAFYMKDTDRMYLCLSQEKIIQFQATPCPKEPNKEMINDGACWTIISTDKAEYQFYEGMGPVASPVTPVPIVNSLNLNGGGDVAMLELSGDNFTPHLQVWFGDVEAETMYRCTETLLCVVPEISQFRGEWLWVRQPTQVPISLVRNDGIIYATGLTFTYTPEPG

B1: Drosophila Mastermind (aa 87–307) (domain or fragment, UniProt P21519 87-307, looked up)
chain: PYNANLGATGGIAGITGGNGAGGPTNPGAVPTAPGDTMPTKRMPVVDRLRRRMENYRRRQTDCVPRYEQAFNTVCEQQNQETTVLQKRFLESKNKRAAKKTDKKLPDPSQQHQQQQHQQQQQHQQHQQHQQAQTMLAGQLQSSVHVQQKFLKRPAEDVDNGPDSFEPPHKLPNNNNNSNSNNNNGNANANNGGNGSNTGNNTNNNGNSTNNNGGSNNNGSE
notes: Mastermind, Drosophila, residues 87-307; also called Mam; MAM
Turning to B1, the binding result is on record as “binds”.

B2: Drosophila Notch intracellular domain, NICD (aa 1763–2142) (domain or fragment, UniProt P07207 1763-2142, looked up)
chain: VLSTQRKRAHGVTWFPEGFRAPAAVMSRRRRDPHGQEMRNLNKQVAMQSQGVGQPGAHWSDDESDMPLPKRQRSDPVSGVGLGNNGGYASDHTMVSEYEEADQRVWSQAHLDVVDVRAIMTPPAHQDGGKHDVDARGPCGLTPLMIAAVRGGGLDTGEDIENNEDSTAQVISDLLAQGAELNATMDKTGETSLHLAARFARADAAKRLLDAGADANCQDNTGRTPLHAAVAADAMGVFQILLRNRATNLNARMHDGTTPLILAARLAIEGMVEDLITADADINAADNSGKTALHWAAAVNNTEAVNILLMHHANRDAQDDKDETPLFLAAREGSYEACKALLDNFANREITDHMDRLPRDVASERLHHDIVRLLDEHVPR
notes: Notch, Drosophila, intracellular domain, residues 1763-2142
Regarding B2, the binding result was “binds”.

Values taken from paper PMC8494340, “Enhancers with cooperative Notch binding sites are more resistant to regulation by the Hairless co-repressor” (PLoS Genetics, 2020).
